Two molecules from publication PMC3491057, “Proliferating Cell Nuclear Antigen (PCNA) Interactions in Solution Studied by NMR” (PLoS ONE, 2012) can be followed below.

No end group written: not given here.

Settings in all cases: both partners purified
Experiment [1] deals with Proliferating Cell Nuclear Antigen (PCNA), human (human). Description: NMR titration; 280 µM U-2H,15N-PCNA titrated with a 7.5 mM stock of ING1^22 up to a 7.8-fold molar excess; CSP of H44 fitted to one set of sites; PBS pH 7.0, 35°C.
Proliferating Cell Nuclear Antigen (PCNA), human (human), sequence (chain, as listed by the source): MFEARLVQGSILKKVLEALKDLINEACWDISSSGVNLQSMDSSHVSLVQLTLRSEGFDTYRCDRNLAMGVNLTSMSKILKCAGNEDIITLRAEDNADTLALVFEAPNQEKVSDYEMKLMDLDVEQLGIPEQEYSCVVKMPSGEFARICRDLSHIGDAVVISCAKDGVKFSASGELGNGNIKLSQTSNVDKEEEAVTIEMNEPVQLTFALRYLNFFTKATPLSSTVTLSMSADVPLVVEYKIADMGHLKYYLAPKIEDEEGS
Experiment [2] has as its target T1, Proliferating Cell Nuclear Antigen (PCNA), human (human, homotrimeric ring; GlySerHis tag remnant before Met1 left out; 2H/15N(/13C) labelled for NMR, natural abundance for ITC). Description: ITC; PCNA (11.2–13.4 µM protomers) in the cell titrated with peptide (117 µM p21^20, 363 p21^12); PBS pH 7.0, 30°C; single set of identical sites.
For experiment [3], the target named is T1, Proliferating Cell Nuclear Antigen …. Description: ITC; PCNA (11.2–13.4 µM protomers) in the cell titrated with peptide (117 µM p21^20, 363 p21^12); PBS pH 7.0, 35°C; single set of identical sites.

T1 sequence (chain, as listed by the source): as above

PANGEQLHLVNYVEDTLDSIES (not fully specified) [ING1 PIP-box fragment 4-25 (ING1^22)]: in experiment [1], the “KD with CSPmax set equal to the CSP of PCNA bound to p21^20” value turned out to be 12500 ± 500 µM and the Kd – broadly, a measure of binding affinity in units of concentration – is 2000 ± 700 µM.

As for KRRQTSMTDFYH (source: lyophilized peptide) [p21 fragment 141-152 (p21^12), shorter PIP-box peptide of the Cyclin-dependent kinase inhibitor 1], the Kd in experiment [2] amounted to 0.64 µM; in experiment [3] it was 1.1 µM. Besides, the “stoichiometry N” value in experiment [2] is 1 p21 ligand per PCNA protomer.
